Reference: paper PMC11370580

Experiments:
[1] = tested on: HMGB1-WT (Homo sapiens); assay: restriction enzyme accessibility
[2] = tested on: HMGB1-WT (Homo sapiens); assay: EMSA; conditions: scale: fold lower affinity than with flanking DNA

Substance	K half [1] [nM]	binding signal [2]
40/40-Pst137 nucleosome	113	
core nucleosome (0/0)		10
